From publication PMC4197110

Target: dynamic microtubules grown from GMPCPP-stabilized seeds (UniProt Q6B856)
Assay: optical trap rupture force assay

Chain of UniProt Q6B856 (Q6B856 whole entry, looked up): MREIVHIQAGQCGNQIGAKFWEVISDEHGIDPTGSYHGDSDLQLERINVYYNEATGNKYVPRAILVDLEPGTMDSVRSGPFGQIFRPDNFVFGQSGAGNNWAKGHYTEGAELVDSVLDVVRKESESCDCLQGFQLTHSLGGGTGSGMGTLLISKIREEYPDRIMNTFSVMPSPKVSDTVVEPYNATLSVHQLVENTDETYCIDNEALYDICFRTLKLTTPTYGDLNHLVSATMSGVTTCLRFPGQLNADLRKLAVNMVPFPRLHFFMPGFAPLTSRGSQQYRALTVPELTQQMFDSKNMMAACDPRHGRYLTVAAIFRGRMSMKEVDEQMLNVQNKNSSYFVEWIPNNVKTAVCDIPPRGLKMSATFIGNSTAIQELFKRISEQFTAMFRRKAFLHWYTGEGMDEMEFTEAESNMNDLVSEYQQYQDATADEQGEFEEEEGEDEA

“dad1-1 kinetochore particles (from UniProt P40568 1-576) (complex)” showed a mean rupture force of 2.7 pN.
